Patent US20260258115A1 (MAPP BIOPHARMACEUTICAL, published 2026)
Changes are numbered by the printed parent chain.

B1: ADI-41352 (antibody, V domains shown)
VH: EVQLVESGGGLVQPGGSLRLSCAASGFTFSSYRMNWVRQAPGKGLEWVSYIDISSSTIYYADSVKGRFTISRDNAKNSLYLQMNSLRAEDTAVYYCARDQLVWEPLIRNHYYYAMDVWGQGTTVTVSS
VL: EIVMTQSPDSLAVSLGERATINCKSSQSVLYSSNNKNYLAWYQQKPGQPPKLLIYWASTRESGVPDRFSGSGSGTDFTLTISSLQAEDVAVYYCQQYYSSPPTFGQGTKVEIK
notes: IgG1
B2: ADI-41840 (antibody, V domains shown)
VH: QVQLVQSGAEVKKPGSSVKVSCKASGDTFSGYAIYWVRQAPGRGLELMGGIIPILGTSSYAQRFLGRTSFTADESTSTAYMDLSSLTSADTAMYYCARKRVTVPVPFDSWGQGTLVTVSS
VL: EIVMTQSPATLSVSPGERATLSCRASQSVSSNLAWYQQKLGQAPRLLIYGASTRATDIPARFSGSGSGTEFTLTISSLQSEDFVVYYCQQYNNWPWTFGQGTKVEIK
B3: ADI-41835 (antibody, V domains shown)
VH: EVQLLESGGGLVQPGGSLRLSCAASGFTFSSYAMNWVRQAPGKGLEWVSIISDSGGSTYYADSVKGRFTISRDNSKNTLYLQMNSLRAEDTAVYYCAKATPLKWELLIGSTPGYYFDYWGQGTTVTVSS
VL: SYELTQLPSVSVSPGQTASITCSGDKLGDKYACWYQQKPGQSPVVIMYQDNKRPSGIPERFSGSNSGNTATLTISGTQAMDEADYYCQAWDSSTGVFGGGTKVTVL
B4: ADI-21072 (antibody, V domains shown)
VH: QVQLVQSGGGLVKPGGSLRLSCEASGFNFRSYHMSWVRQAPGKGLEWVSSITAGSSYINYADSVKGRFTISRDNAKNSVFLQMNSLSAEDTAVYYCAREGLNMGVGGTWFDPWGQGTLVTVSS
VL: QAVVTQEPSVSGAPGQRVTISCTGSSSNIGAGYDVHWYQQLPGTAPKLLIYGNNNRPSGVPDRFSGSKSATSASLAITGLQADDEADYYCQSYDRSLSGSWVFGTGTKVTVL
B5: ADI-21077 (antibody, V domains shown)
VH: QVQLVESGGGLVKPGGSLRLSCVVSGFTFRDYYMSWIRQAPGKGLEWISYISPSSTYTNYADSVRGRFTISRDNAENSLYLQMNSLRAEDTAVYYCARVNIAATGAGGVFLDYWGQGTTVTVSS
VL: B4 VL with A2P, V4L, E7P, T23A, N54I, A70G, D83E, R95S, W101Y
B6: ADI-41828 (antibody, V domains shown)
VH: EVQLVESGGGLVQPGGSLRLSCADSDFTFSTYSMNWVRQAPGKGLEWISYITGRSSAIYYADSVKGRFTISRDNAKNSLFLQMNSLRAEDTAVYYCTTFMAGYSFGHGDAFDIWGQGTTVTVSS
VL: SYELTQPPSVSVAPGQTARITCGGNNIGSKSVHWYQQKPGQAPVLVVYDDSDRPSGIPERFSGSNSGNTATLTISRVEAGDEADYYCQVWNSNSDHPHWVFGGGTQLTVL
B7: ADI-21064 (antibody, V domains shown)
VH: EVQLVESGGEVKKPGASVKVSCKASGYIFSNHGVSWVRQAPGQGLEWMGWISAYNGNAIYAQNLQGRVTLTTDTSTSTAYMELTSLTSDDTAIYYCARESGATAAAVMDYWGQGTLVTVSS
VL: DIVLTQTPLSLPVILGQPASISCRSSQSLVYSDGNTYLTWFQQRPGQSPRRLIYKVSNRDSGVPDRFSGSGSDTDFTLKISRVEAEDVGVYYCMQGIDWPRTFGQGTKVDIK
B8: ADI-41834 (antibody, V domains shown)
VH: EVQLLESGGRLVQPGRSLRLSCAASGFTVSGSYMSWVRQAPGKGLEWVSVIYIDGGTKYADSVKGRFTISRDNSKNTVYLQMNSLRAEDTAVYYCARDSSLWYRGGDYWGQGTLVTVSS
VL: DIQMTQSPSSLSASVGDRVTITCQANHDISNYLNWYQQKPGKAPKLLIYDASILEAGVPSRFSGSGSGTHFTFTISSLQPEDIATYYCQQFDFRALTFGGGTKVEIK
B9: ADI-21075 (antibody, V domains shown)
VH: EVQLVESGGGLVKPGGSLRLSCAASGFSFSNYYMSWVRQAPGKGLEWISYISGGSTYANLADSVKGRFTISRDNTKNSMYLQMTSLRPDDTAVYYCARIHGTHGPFYFDYWGQGTLVTVSS
VL: QSVLTQPPSVSGAPGQRVTISCTGSSSNIGAGYDVHWYQQLPGTAPKLLIHANSNRPSGVPDRFSGSKSGTSASLAITGLQAEDEADYYCQSYDNSLNAYYVFGTGTKLTVL
notes: also called Ab 320
B10: ADI-21065 (antibody, V domains shown)
VH: EVQLLESGGGLVQPGGSLRLSCAASGFTFSSYAMNWVRQAPGKGLEWVSGISGSGESTYYADSVKGRFTISRDSSKNTVYLQMNSLRADDTAVYYCAKDQGYGVVVPAATRALPPRRYGMDVWGQGTTVTVSS
VL: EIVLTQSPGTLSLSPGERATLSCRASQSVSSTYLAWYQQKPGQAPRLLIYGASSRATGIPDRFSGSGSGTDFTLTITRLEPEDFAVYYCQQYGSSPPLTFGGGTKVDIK
B11: ADI-41832 (antibody, V domains shown)
VH: EVQLVESGGGLVQPGGSLRLSCAASGFTFSKYAMNWVRQAPGKGLEWVSSISDSGDSRYYADSVKGRFTISRDSSKNTLNLQMNSLRAEDTAVYYCAKAGWELFSPQGAFDLWGQGTMVTVSS
VL: EIVMTQSPGTLSLSPGERATLSCRASQSVSSSHLAWYQQKPGQAPRLLIYGASSRDSGIPDRFSGSGSGTDFTLSISRLEPEDFAVYYCQHYGNSPYTFGQGTKVDIK
B12: ADI-21089 (antibody, V domains shown)
VH: EVQLLESGGGLVKPGGSLRLSCVASGFRFTSYSMNWVRQAPGKGLEWVSSISASSSYVDYADSLKGRFTISRDNAQNSLFLQMNSLRAEDTAVYYCARDYYDSGNYHSPFPMDVWGQGTTVTVSS
VL: QSVLTQPPSVSGAPGQRVTISCTGSRSNIGAGYDVHWYQQLPGTAPKLLIYGNNKRPSGVPDRFSGSKSGTSASLAITGLQAEDEADYYCQSYDSGPIFGGGTKVTVL
B13: ADI-43640 (antibody, V domains shown)
VH: QVQLVQSGGGLVKPGGSLRLSCAASGFTFSSYSMNWVRQAPGKGLEWVSSISSSSSYIYYADSVKGRFTISRDNAKNSLYLQMNSLRAEDTAVYYCAREGRDGYNYNFDYWGQGTLVTVSS
VL: QSVVTQPPSVSGAPGQRVTISCTGSSSNIGAGYDVHWYQQLPGTAPKLLIYGNSNRPSGVPDRFSGSKSGTSASLAITGLQAEDEADYYCQSYDSSLSGVVFGGGTKLTVL
B14: ADI-21079 (antibody, V domains shown)
VH: EVQLLESGGGLVKPGGSLRLSCAASGFTFSDYYMSWIRQAPGKGLEWVSNISGGSTYTNYADSVKGRFTISRDNAKNSLYLQMNSLRAEDTAVYYCAREAYGSGNYYNPNWLDPWGQGTLVTVSS
VL: B13 VL with V4L, S54R, V100S
B15: ADI-21086 (antibody, V domains shown)
VH: EVQLVETGGGLVKPGGSLRLSCAASPFAFSNYYMSWIRQAPGKGLEWISNISGGSTFTNYADSVKGRFTISRDNARNSLYLLMNNLRTEDTAVYYCAREASVAAGTPEGFDVWGQGTTVTVSS
VL: B13 VL with H36N, L41F, S54R, D62A, T71A, Q91H, S96G, V100S
B16: ADI-21081 (antibody, V domains shown)
VH: EVQLLESGGGLVKPGGSLRLSCAASRFAFSNYYMTWIRQAPGKGLEWISNISGGSTFTNYADSVKGRFTISRDNAKNSVHLQMNSLRAEDTAVYYCVREASVAAGTPEGFDIWGQGTMVTVSS
VL: B13 VL with V4L, T19I, H36N, I50M, S54R, P57A, Q91H, S98G, V100S
notes: also called Ab 326
B17: ADI-21082 (antibody, V domains shown)
VH: EVQLVESGGGLVKPGGSLKLSCVASGLKFSSYSMNWVRQAPGKGLEWVSSVSAGSSYTNYADSVKGRFTISRDNAKNSLYLQMNSLRVDDTAVYYCATERCSGGSCYLHGFDPWGQGTTVTVSS
VL: QSVLTQPPSVSGAPGQRVTISCTGSSSNIGAGYDVHWYQQLPGTAPKLLIFDNIIRPSGVPDRFSGSKSGTSASLAITGLQADDEADYYCQSYDKSGDYVFGTGTKVTVL

Experiments:
[1] = molecular target: RSV prefusion F (preF), DS-Cav1 (respiratory syncytial virus, UniProt P03420 26-513); test: BLI, IgG on sensor, 100 nM antigen
[2] = molecular target: RSV postfusion F (postF), F deltaFP (respiratory syncytial virus, UniProt P03420 26-513); test: BLI, IgG on sensor
[3] = molecular target: RSV fusion glycoprotein (RSV F) on RSV-A2 virus (respiratory syncytial virus, UniProt P03420 26-574); test: cell-based or functional assay
[4] = molecular target: RSV F on RSV subtype A virus (RSV-A2) (Respiratory Syncytial Virus, subtype A, …, UniProt P03420 26-574); test: cell-based or functional assay
[5] = molecular target: T1, RSV postfusion F, subtype B (postF trimer) (Respiratory syncytial virus subtype B, UniProt P13843 26-513); test: BLI, IgG apparent affinity
T1 construct: also called Postfusion subtype B

[6] = molecular target: RSV F on recombinant mKate-RSV A2 virus (Respiratory syncytial virus A2, UniProt P03420 26-574); test: cell-based or functional assay
[7] = molecular target: RSV F on recombinant mKate-RSV B 18537 virus (Respiratory syncytial virus B 18537, UniProt P13843 26-574); test: cell-based or functional assay
[8] = molecular target: RSV prefusion F (preF), DS-Cav1 stabilized trimer, subtype A (Respiratory Syncytial Virus, subtype A, UniProt P03420 26-513); test: BLI, IgG on anti-human IgG sensors, 100 nM antigen, apparent KD

Row | Binder | Neutralization IC50 (RSV subtype A) [4] | binding result [5] | Neut IC50 (ug/ml) subtype A [6] | Neut IC50 (ug/ml) subtype B [7] | other results
1 | B1 |  |  |  |  | Kd [1]: 3.36 nM; binding result [2]: no binding (tested: 100 nM antigen); Neutralization IC50 (RSV subtype A) [3]: > 25 µg/mL
2 | B2 | > 25 µg/mL |  |  |  | 
3 | B3 | 0.45 µg/mL |  |  |  | 
4 | B4 |  | no binding | 0.04 µg/mL | 0.33 µg/mL | 
5 | B5 |  | no binding | 0.06 µg/mL | 0.06 µg/mL | 
6 | B6 | 5.53 µg/mL |  |  |  | Kd [8]: 0.241 nM
7 | B7 |  | no binding | 0.03 µg/mL | 0.12 µg/mL | 
8 | B8 | 0.07 µg/mL |  |  |  | 
9 | B9 |  | no binding | 0.03 µg/mL | 0.48 µg/mL | 
10 | B10 |  | no binding |  |  | 
11 | B11 | 0.19 µg/mL |  |  |  | 
12 | B12 |  |  | 0.27 µg/mL | 0.17 µg/mL | Kd [5]: 3.34 nM
13 | B13 | > 25 µg/mL |  |  |  | 
14 | B14 |  | no binding | 0.2 µg/mL | 0.29 µg/mL | 
15 | B15 |  | no binding | 0.11 µg/mL | 0.47 µg/mL | 
16 | B16 |  | no binding | 0.1 µg/mL | 0.32 µg/mL | 
17 | B17 |  |  | 0.09 µg/mL | 0.25 µg/mL | Kd [5]: 6.17 nM
